Experimental data taken from article PMC7579878, “Unannotated single nucleotide polymorphisms in the TATA box of erythropoiesis genes show in vitro positive involvements in cognitive and mental disorders”.

B1: HBZ TATA WT (ODN 3) (dsDNA)
DNA 1: AGCTCCCTGTATATAAGGGGACCCTG
DNA 2: CAGGGTCCCCTTATATACAGGGAGCT
B2: EPOR rs567946217:G (-31C>G, ODN 9) (dsDNA)
DNA 1: CACGTCATGTATTTTTGTCTGCTACG
DNA 2: CGTAGCAGACAAAAATACATGACGTG
B3: EPOR rs971717705:G (-29A>G, ODN 7) (dsDNA)
DNA 1: CACGTCATCTGTTTTTGTCTGCTACG
DNA 2: CGTAGCAGACAAAAACAGATGACGTG
B4: EPOR rs1006576690:A (-27T>A, ODN 6) (dsDNA)
DNA 1: CACGTCATCTATATTTGTCTGCTACG
DNA 2: CGTAGCAGACAAATATAGATGACGTG
B5: HBZ rs113180943:A (-29T>A, ODN 4) (dsDNA)
DNA 1: AGCTCCCTGTAAATAAGGGGACCCTG
DNA 2: CAGGGTCCCCTTATTTACAGGGAGCT
B6: HBB TATA WT (ODN 1, -32C) (dsDNA)
DNA 1: AGGGCTGGGCATAAAAGTCAGGGCAG
DNA 2: CTGCCCTGACTTTTATGCCCAGCCCT
B7: EPOR TATA-like WT (ODN 5) (dsDNA)
DNA 1: CACGTCATCTATTTTTGTCTGCTACG
DNA 2: CGTAGCAGACAAAAATAGATGACGTG
B8: HBB rs34500389:T (-32C>T, ODN 2) (dsDNA)
DNA 1: AGGGCTGGGTATAAAAGTCAGGGCAG
DNA 2: CTGCCCTGACTTTTATACCCAGCCCT

molecular target: TATA-binding protein (hTBP) (Homo sapiens, UniProt P20226 1-339); assay: EMSA (kinetic, kd/ka); EMSA with 32P-labelled 26 bp duplexes; binding buffer, salt, pH and temperature not given in the material; conditions: protein: recombinant; label: 32P (both strands); blunt
Sequence (P20226 whole entry): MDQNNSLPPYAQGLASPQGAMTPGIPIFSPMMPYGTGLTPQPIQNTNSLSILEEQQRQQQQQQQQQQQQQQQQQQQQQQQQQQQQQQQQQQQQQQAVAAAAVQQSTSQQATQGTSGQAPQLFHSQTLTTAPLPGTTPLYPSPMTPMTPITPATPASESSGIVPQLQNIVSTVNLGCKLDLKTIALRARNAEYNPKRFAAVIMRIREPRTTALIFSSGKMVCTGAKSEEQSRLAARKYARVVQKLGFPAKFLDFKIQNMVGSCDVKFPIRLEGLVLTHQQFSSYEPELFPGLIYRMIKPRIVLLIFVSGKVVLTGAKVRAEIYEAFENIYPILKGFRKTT

| Binder | Kd |
| --- | --- |
| B1 | 6 nM |
| B2 | 80 ± 10 nM |
| B3 | 150 ± 30 nM |
| B4 | 11 ± 3 nM |
| B5 | 40 ± 20 nM |
| B6 | 50 nM |
| B7 | 170 ± 30 nM |
| B8 | 32 ± 3 nM |
